Test results: patent publication US20250388889A1 (priority 2019, published 2025)
Several values for one entry are separate records, joined by “and”; a condition that tells them apart may be missing. Identical values can stand only once. Entries after “also recorded” stand apart in the source; their conditions may differ. Marks after values point to notes of the source that are not given here.

Tests used:
c-MYC [1] = format: cell-based, human
CK1α1 [2] = biological target: CK1α1 (Homo sapiens, UniProt P48729)
Chain of CK1α1 (Homo sapiens, UniProt P48729) (P48729 whole entry): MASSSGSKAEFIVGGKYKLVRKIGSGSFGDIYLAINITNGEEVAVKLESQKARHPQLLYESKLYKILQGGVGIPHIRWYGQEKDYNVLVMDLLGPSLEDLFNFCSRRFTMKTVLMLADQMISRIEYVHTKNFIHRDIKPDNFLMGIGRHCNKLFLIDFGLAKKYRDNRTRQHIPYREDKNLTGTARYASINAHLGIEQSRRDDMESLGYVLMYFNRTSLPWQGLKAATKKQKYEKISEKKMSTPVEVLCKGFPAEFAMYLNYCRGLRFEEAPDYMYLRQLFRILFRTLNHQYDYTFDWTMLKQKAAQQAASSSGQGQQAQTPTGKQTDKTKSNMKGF
Procedure: Kidney epithelial cells were stained with rabbit anti-c-MYC (Abcam), rabbit anti-CK1α1 (Cell Signaling Technology), rabbit anti-c-MYB (Sigma Aldrich), rabbit anti-CEBPD (Abcam) or mouse anti-his6-tag primary antibodies (1:200 in 5% FBS/PBS, overnight at 4° C.), followed by secondary goat anti-rabbit Alexa Fluor 488-conjugated or goat-anti mouse Alexa Fluor 568-conjugated antibodies (Molecular Probes, A-11034) (1:200 in 5% FBS and 0.025% Triton X-100/PBS, 1 hour at room temperature). Cells were counterstained with DRAQ5 (Abcam) and examined using a LSM 510 META laser scanning confocal microscope (Carl Zeiss). Fluorescence signal was quantified in 50 cells per condition using Image J.
Cells were lysed with NP-40 lysis buffer supplemented with protease and phosphatase inhibitors (Roche diagnostics). Proteins were run on SDS-PAGE (4-12% Bis-Tris gels, Invitrogen), blotted onto PVDF membranes (Biorad), blocked and stained with primary rabbit anti-c-MYC (1:1000, Abcam), rabbit anti-CK1α1 (1:1000, Cell Signaling Technology) or rabbit-anti-Lon (1:2000, Biorbyt) overnight at 4° C. Membranes were washed and stained with HRP-conjugated goat anti-rabbit HRP conjugated secondary antibodies (1:4000, Cell Signaling) washed again, imaged using ECL plus detection reagent (GE Healthcare) and quantified by ImageJ. β-actin was used as a loading control.

[3] = test system: A498 kidney epithelial cells; format: cell-based, human
CK1α1 [4] = format: cell-based, human
MB49 bladder tumors = settings: mouse, in vivo
intestinal polyps = test system: intestinal polyps; design: species or system C57BL/6J-APC^min/J mice; settings: mouse, in vivo
Actin = format: biochemical
CEBP-δ = format: cell-based, human
CBEB1 = CBEB1 (Homo sapiens, UniProt Q9BZB8); assay: In vitro degradation assay, CPEB1; format: biochemical
Chain of CBEB1 (Q9BZB8 whole entry): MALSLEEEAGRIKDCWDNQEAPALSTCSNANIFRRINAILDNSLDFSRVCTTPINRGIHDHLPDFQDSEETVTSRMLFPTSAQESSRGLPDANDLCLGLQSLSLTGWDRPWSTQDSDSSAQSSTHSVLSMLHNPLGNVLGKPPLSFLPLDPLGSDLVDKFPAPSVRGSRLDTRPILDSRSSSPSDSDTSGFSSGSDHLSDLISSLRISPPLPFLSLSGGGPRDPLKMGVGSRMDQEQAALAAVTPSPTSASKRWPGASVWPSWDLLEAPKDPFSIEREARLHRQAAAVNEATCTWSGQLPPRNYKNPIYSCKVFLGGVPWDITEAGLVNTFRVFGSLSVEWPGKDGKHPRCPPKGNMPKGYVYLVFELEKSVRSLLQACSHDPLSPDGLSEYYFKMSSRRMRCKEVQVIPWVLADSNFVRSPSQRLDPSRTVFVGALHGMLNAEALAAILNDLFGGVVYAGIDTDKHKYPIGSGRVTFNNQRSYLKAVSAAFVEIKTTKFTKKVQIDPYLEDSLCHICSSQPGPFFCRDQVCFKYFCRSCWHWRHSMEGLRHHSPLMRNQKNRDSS
Procedure: (§1) 0.1 μg of recombinant proteins were incubated with 0.2 μg of Lon protease (Abcam, ab141921), or PBS, in a reaction buffer consisting of 20 mM MgCl2 in the presence of ATP (2 mM) in 50 mM Tris. pH 8.0. Proteins were incubated at 37° C. for 60, 120 or 240 minutes and were denatured using 10 mM DTT in NuPAGE Sample Buffer at 100° C. for 5 minutes before further analysis.

c-MYC [5] = biological target: T1, c-MYC (Homo sapiens, UniProt P01106); format: binding
T1 construct: GST
T1 sequence (P01106 16-454): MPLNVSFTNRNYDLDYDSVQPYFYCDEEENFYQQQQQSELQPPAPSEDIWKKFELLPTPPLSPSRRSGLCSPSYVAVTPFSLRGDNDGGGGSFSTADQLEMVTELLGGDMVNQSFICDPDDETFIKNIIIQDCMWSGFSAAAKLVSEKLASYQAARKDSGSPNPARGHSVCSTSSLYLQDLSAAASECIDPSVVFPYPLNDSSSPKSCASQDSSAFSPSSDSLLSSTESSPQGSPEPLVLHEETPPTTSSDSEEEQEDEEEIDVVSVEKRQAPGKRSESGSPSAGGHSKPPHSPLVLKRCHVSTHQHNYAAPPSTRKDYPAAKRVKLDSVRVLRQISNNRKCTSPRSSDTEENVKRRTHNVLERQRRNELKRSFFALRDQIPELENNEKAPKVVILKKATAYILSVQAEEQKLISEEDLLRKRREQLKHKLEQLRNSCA

[6] = mouse, in vivo
c-MYC [7] = format: cell-based, human; remark: listed apart in the source
HH3 = format: biochemical
CDK9 = CDK9 (Homo sapiens, UniProt P50750); assay: In vitro degradation assay, CDK9; format: biochemical
Chain of CDK9 (P50750 whole entry, species assumed): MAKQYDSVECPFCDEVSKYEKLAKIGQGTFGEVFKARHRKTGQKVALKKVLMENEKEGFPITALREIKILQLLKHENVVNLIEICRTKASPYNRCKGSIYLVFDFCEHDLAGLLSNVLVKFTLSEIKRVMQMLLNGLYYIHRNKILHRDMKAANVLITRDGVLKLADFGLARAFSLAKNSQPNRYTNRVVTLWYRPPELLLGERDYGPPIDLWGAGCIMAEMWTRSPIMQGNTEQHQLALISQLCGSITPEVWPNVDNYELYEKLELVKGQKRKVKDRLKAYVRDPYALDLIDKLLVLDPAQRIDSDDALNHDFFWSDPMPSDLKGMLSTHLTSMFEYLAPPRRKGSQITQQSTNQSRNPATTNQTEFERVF
Procedure: as §1

AKT = format: biochemical
[8] = mouse, in vivo; remark: listed apart in the source
GRP75 = GRP75 (Homo sapiens, UniProt P38646); assay: In vitro degradation assay, GRP75; format: biochemical
Chain of GRP75 (P38646 47-679, species assumed): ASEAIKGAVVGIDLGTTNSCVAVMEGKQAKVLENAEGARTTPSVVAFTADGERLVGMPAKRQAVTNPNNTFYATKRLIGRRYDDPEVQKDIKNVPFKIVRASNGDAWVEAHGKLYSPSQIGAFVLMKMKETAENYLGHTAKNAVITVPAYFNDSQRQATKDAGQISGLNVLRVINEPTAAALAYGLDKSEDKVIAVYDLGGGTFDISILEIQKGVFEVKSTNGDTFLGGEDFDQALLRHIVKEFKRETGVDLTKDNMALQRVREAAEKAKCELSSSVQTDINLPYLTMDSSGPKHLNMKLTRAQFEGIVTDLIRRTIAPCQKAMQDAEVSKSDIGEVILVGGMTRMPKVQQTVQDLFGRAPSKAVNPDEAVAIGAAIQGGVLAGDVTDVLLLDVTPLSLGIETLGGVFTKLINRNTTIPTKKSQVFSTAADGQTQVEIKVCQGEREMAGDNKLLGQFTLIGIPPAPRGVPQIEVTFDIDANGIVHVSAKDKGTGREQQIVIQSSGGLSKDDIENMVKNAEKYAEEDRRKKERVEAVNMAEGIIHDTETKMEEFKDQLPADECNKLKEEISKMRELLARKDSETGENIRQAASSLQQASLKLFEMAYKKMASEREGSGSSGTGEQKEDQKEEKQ
Procedure: as §1

MAX [9] = biological target: T2, MAX (Homo sapiens, UniProt P61244); assay: In vitro degradation assay, MAX; format: biochemical
T2 sequence (P61244 whole entry, species assumed): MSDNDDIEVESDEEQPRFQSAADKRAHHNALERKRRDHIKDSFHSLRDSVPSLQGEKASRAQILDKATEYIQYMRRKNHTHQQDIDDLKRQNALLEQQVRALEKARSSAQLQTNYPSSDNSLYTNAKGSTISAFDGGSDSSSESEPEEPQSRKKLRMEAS
Procedure: as §1

c-MYB = format: cell-based, human
MAX [10] = biological target: T2, MAX; format: binding
c-MYC [11] = biological target: T1, c-MYC; assay: In vitro degradation assay of recombinant c-MYC by Lon protease; format: biochemical
Procedure: […] Proteins were incubated at 37° C. for 60, 120 or 240 minutes and were denatured using 10 mM DTT in NuPAGE Sample Buffer at 100° C. for 5 minutes before further analysis.
Samples were diluted with NuPAGE LDS sample buffer (Invitrogen) mixed with 10 mM dithiotreitol (DTT) and incubated at 56° C. for 20 min followed by addition of iodoacetamide (IAA) to a final concentration of 20 mM. Samples were loaded on 4-12% NuPAGE (Invitrogen). The electrophoresis was run in MOPS buffer. The gel was Coomassie stained and bands of interest were excised from the SDS-PAGE and trypsin digested, followed by identification using LC-MS/MS as per above. MS/MS spectra were investigated with PEAKS (version 10) against UniProt Human (released 2020 Feb. 21) where the sequence for GST-tag-MYC had been added. The precursor tolerance and fragment tolerance were set to 10 ppm and 0.05 Da, respectively. None enzyme was selected, methionine oxidation and deamidation of asparagine and glutamine were treated as dynamic modification and carbamidomethylation of cysteine as a fixed modification.

[Cl-].[Cl-].[Zn+2] [ZnCl2]
Effect of metal ion pretreatment of E. coli 536 on c-MYC inhibition (c-MYC [1]): reversed c-MYC inhibition | Effect of treating the active E. coli 536 supernatant on MYC levels in host cells (c-MYC [1]): did not affect MYC levels in host cells

[Cl][Mn][Cl] [MnCl2]
Effect of metal ion pretreatment of E. coli 536 on c-MYC inhibition (c-MYC [1]): no effect

[Cl-].[Cl-].[Mg+2] [MgCl2]
Effect of metal ion pretreatment of E. coli 536 on c-MYC inhibition (c-MYC [1]): no effect

COc1cc(OC)c(C=C2C(O)=Nc3ccccc32)c(OC)c1 [IC261]
Effect on c-MYC degradation in infected cells (CK1α1 [2]; 100 μg/ml, 30 minutes pre-treatment, E. coli 536): reduced c-MYC degradation | Effect on c-MYB inhibition by E. coli 536 (CK1α1 [2]; 30 minutes): reversed c-MYB inhibition

O=C(N/N=C/c1ccc(O)c(O)c1)c1cc2ccccc2cc1O [Dynasore]
Lon protease staining and uptake after endocytosis inhibitor pre-treatment [3]: reduced Lon protease staining and uptake

O=C(O)CN(CCOCCOCCN(CC(=O)O)CC(=O)O)CC(=O)O [EGTA, Egtazic acid]
Effect on CK1α1 activation (CK1α1 [4]): inhibited the activation of CK1α1

CO[C@@]12[C@H](COC(N)=O)C3=C(C(=O)C(C)=C(N)C3=O)N1C[C@@H]1N[C@@H]12 [Mitomycin, reference compound]
Bladder size % Sham (range) (MB49 bladder tumors): 67 (54-87)^b % Sham | Bladder weight g^−1 (range) (MB49 bladder tumors): 4 (3.4-5.9)^b g^−1

O=c1c(O)c(-c2ccc(O)c(O)c2)oc2cc(O)cc(O)c12 [Quercetin]
Lon protease staining and uptake after endocytosis inhibitor pre-treatment [3]: reduced Lon protease staining and uptake

[Ca+2].[Cl-].[Cl-] [CaCl2]
Effect of metal ion pretreatment of E. coli 536 on c-MYC inhibition (c-MYC [1]): no effect

COc1cccc2c1C(=O)c1c(O)c3c(c(O)c1C2=O)C[C@@](O)(C(=O)CO)C[C@@H]3O[C@H]1C[C@H](N)[C@@H](O)[C@H](C)O1 [Epirubicin, reference compound]
Bladder size % Sham (range) (MB49 bladder tumors): 65 (53-70)^b % Sham | Bladder weight g^−1 (range) (MB49 bladder tumors): 3.9 (3.2-4.8)^b g^−1

B1: Lon protease: Recombinant bacterial (E. coli) ATP-dependent serine peptidase Lon, commercially produced in E. coli K12 (protein, UniProt P0A9M0 2-784, looked up)
Lon protease: NPERSERIEIPVLPLRDVVVYPHMVIPLFVGREKSIRCLEAAMDHDKKIMLVAQKEASTDEPGVNDLFTVGTVASILQMLKLPDGTVKVLVEGLQRARISALSDNGEHFSAKAEYLESPTIDEREQEVLVRTAISQFEGYIKLNKKIPPEVLTSLNSIDDPARLADTIAAHMPLKLADKQSVLEMSDVNERLEYLMAMMESEIDLLQVEKRIRNRVKKQMEKSQREYYLNEQMKAIQKELGEMDDAPDENEALKRKIDAAKMPKEAKEKAEAELQKLKMMSPMSAEATVVRGYIDWMVQVPWNARSKVKKDLRQAQEILDTDHYGLERVKDRILEYLAVQSRVNKIKGPILCLVGPPGVGKTSLGQSIAKATGRKYVRMALGGVRDEAEIRGHRRTYIGSMPGKLIQKMAKVGVKNPLFLLDEIDKMSSDMRGDPASALLEVLDPEQNVAFSDHYLEVDYDLSDVMFVATSNSMNIPAPLLDRMEVIRLSGYTEDEKLNIAKRHLLPKQIERNALKKGELTVDDSAIIGIIRYYTREAGVRGLEREISKLCRKAVKQLLLDKSLKHIEINGDNLHDYLGVQRFDYGRADNENRVGQVTGLAWTEVGGDLLTIETACVPGKGKLTYTGSLGEVMQESIQAALTVVRARAEKLGINPDFYEKRDIHVHVPEGATPKDGPSAGIAMCTALVSCLTGNPVRADVAMTGEITLRGQVLPIGGLKEKLLAAHRGGIKTVLIPFENKRDLEEIPDNVIADLDIHPVKRIEEVLTLALQNEPSGMQVVTAK
Body weight at long-term follow up compared to sham (intestinal polyps): increase | Cancer gene networks as share of all regulated genes (intestinal polyps): 93% | Day until which mice remained asymptomatic (intestinal polyps): 175 days | Intestinal polyp number at long-term follow up compared to sham (intestinal polyps): significant reduction | MYC expression and MYC-dependent gene networks (intestinal polyps): inhibited | Polyp number compared to sham and pre-treatment samples (intestinal polyps): reduced the polyp number | Subset of colorectal cancer genes (intestinal polyps): 54% | Survival (Kaplan Mayer plot) (intestinal polyps): increased survival | Degradation of Actin in vitro (Actin): not degraded | CEBP-δ degradation (CEBP-δ): < 5% | Degradation of CBEB1 in vitro (CBEB1): not degraded | Cytotoxic effects in human kidney cells (human kidney cells): not detected | Binding to c-MYC by co-immunoprecipitation (c-MYC [5]): verified; also recorded: dose-dependent | Bladder weight and macroscopic appearance of the bladder [6]: No change | MYC expression in bladders [6]: not regulated | MYC-dependent genes activated [6]: 33 | MYC-dependent genes inhibited [6]: 1 | Bladder size % Sham (range) (MB49 bladder tumors): 69 (53-85)^a % Sham | Bladder size, weight and pathology compared to day 12 (MB49 bladder tumors): remained unchanged | Bladder weight g^−1 (range) (MB49 bladder tumors): 5.3 (3.9-6.3)^a g^−1 | Bladder weights and pathology scores versus sham (MB49 bladder tumors): remained lower than in the sham group | Cancer gene networks as share of all regulated genes, compared to sham (MB49 bladder tumors): 96.6% | Day until which mice remained asymptomatic (MB49 bladder tumors): 27 days and 34 days | Efficiency compared with E. coli 536 supernatant (tumor progression, gene expression) (MB49 bladder tumors): more efficient | Expression of genes potentially involved in toxicity, compared with E. coli 536-treated mice (MB49 bladder tumors): less strongly expressed | Gene expression inhibited compared to the sham group (MB49 bladder tumors): 95% | Mice with bladder tumors present (MB49 bladder tumors): 15/15 | Mice with hematuria (MB49 bladder tumors): 3/15 and 2/12 | Subset of bladder cancer related genes inhibited (MB49 bladder tumors): 11.8% | Survival (Kaplan Meyer plot) (MB49 bladder tumors): increased survival | c-MYC staining in human kidney cells (c-MYC [7]): dose-dependent decrease | Degradation of HH3 in vitro (HH3): not degraded | Degradation of CDK9 in vitro (CDK9): not degraded | Degradation of AKT in vitro (AKT): not degraded | MYC-related genes activated [8]: 1 | MYC-related genes inhibited [8]: 8 | Body weight and macroscopic appearance of organs ([8]; po): No change | MYC expression in intestines ([8]; po): not regulated | Degradation of GRP75 in vitro (GRP75): not degraded | Degradation of MAX in vitro (MAX [9]): not detected | c-MYB decrease compared to PBS (c-MYB): 45% | Pull-down of recombinant MAX (MAX [10]): Weak pull-down | c-MYC degradation, comparative analysis of protein degradation (c-MYC [11]; FIG. 17i): degraded after 3 hours | c-MYC remaining after Lon dependent degradation (c-MYC [11]; Recombinant c-MYC (1 μg) with Lon protease (2 μg), 37° C., 0 to 4 hours, from 200 ng, n=3): 79 ng | Number of specific c-MYC peptides found after rLon degradation (LC-MS/MS) (c-MYC [11]; control sample 23 peptides): 10 | c-MYC sequence covered by specific peptides after rLon degradation (LC-MS/MS) (c-MYC [11]; control sample 51%): 23% | c-MYC degradation in vitro (c-MYC [11]; recombinant c-MYC, kinetics): degrade recombinant c-MYC in vitro, in a time dependent manner
